Data reported in patent US20230044278A1 (DYNE THERAPEUTICS, published 2023).

Legend:
[1] = biological target: T1, recombinant cynomolgus monkey (Macaca fascicularis) transferrin receptor 1 (cynomolgus monkey (Macaca fascicularis), UniProt Q5RDH6 87-760 (Pongo abelii entry), limits assumed); assay: ELISA, Fab-ASO300 conjugate; printed as 'DMPK oligo conjugate binding to cyno TfR1 (nM)'
T1 construct: also called cTfR1; cyno TfR1
T1 chain: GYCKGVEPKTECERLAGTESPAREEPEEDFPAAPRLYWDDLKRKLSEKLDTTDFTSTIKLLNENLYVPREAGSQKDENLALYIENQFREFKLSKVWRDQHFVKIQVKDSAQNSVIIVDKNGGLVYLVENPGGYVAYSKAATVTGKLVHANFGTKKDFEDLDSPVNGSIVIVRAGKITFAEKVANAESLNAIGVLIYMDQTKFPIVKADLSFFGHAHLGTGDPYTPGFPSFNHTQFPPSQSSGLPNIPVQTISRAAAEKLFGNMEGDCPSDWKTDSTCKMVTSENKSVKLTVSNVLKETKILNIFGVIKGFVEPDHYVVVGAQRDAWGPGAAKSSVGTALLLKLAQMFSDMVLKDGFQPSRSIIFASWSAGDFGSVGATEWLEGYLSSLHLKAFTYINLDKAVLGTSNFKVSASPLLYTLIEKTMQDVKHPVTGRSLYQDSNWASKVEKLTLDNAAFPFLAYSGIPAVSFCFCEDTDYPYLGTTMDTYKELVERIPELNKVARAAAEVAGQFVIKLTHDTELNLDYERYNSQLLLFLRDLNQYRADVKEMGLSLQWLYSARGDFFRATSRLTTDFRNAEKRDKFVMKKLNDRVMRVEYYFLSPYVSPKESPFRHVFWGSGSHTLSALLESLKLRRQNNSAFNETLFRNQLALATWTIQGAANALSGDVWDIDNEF

[2] = biological target: T2, recombinant human transferrin receptor 1 (human, UniProt P02786 89-760); assay: ELISA, Fab-ASO300 conjugate; printed as 'DMPK oligo conjugate binding to hTfR1 (nM)'; Table 9 (thermal stability table); DMPK oligo conjugate, hTfR1
T2 construct: also called hTfR1; huTfR1

EC50 [1]: 13.9 nM | EC50 [2]: 13.9 nM
B1: 5H12 (VH5-C33Y/Vk4) Fab conjugated to DMPK-targeting oligonucleotide ASO300 (Fab, V domains shown)
VH: QVQLVQSGAEVKKPGASVKVSCKASGYSFTDYYINWVRQAPGQGLEWMGWIYPGSGNTRYSERFKGRVTITRDTSASTAYMELSSLRSEDTAVYYCAREDYYPYHGMDYWGQGTLVTVSS
VL: DIVMTQSPDSLAVSLGERATINCRASESVDGYDNSFMHWYQQKPGQPPKLLIFRASNLESGVPDRFSGSGSGTDFTLTISSLQAEDVAVYYCQQSSEDPWTFGQGTKLEIKR
modifications: ASO300 oligonucleotide covalently conjugated via linker of Formula (C); residue and chain not stated
notes: also called DMPK oligo conjugate
